The series can be described thus: label from the status in PepcDB records.
For “MHVEQTRINMQSQGQSHQLPSAAHILLDQNPNSTGSNLVVKQNDIQSLSSVGLLELAHREYQAVDYESAEKHCMQLWRQDSTNTGVLLLLSSIHFQCRRLDKSAQFSTLAIKQNPVLAEAYSNLGNVFKERGQLQEALDNYRRAVRLKPDFIDGYINLAAALVAARDMESAVQAYITALQYNPDLYCVRSDLGNLLKALGRLEEAKACYLKAIETCPGFAVAWSNLGCVFNAQGEIWLAIHHFEKAVTLDPNFLDAYINLGNVLKEARIFDRAVAAYLRALNLSPNNAVVHGNLACVYYEQGLIDLAIDTYRRAIELQPNFPDAYCNLANALKEKGQVKEAEDCYNTALRLCSNHADSLNNLANIKREQGYIEEATRLYLKALEVFPDFAAAHSNLASVLQQQGKLKEALMHYKEAIRIQPTFADAYSNMGNTLKELQDVSGALQCYTRAIQINPAFADAHSNLASIHKDSGNIPEAIQSYRTALKLKPDFPDAYCNLAHCLQIVCDWTDYDIRMKKLVSIVTEQLEKNRLPSVHPHHSMLYPLTHDCRKAIAARHANLCLEKVHVLHKKPYNFLKKLPTKGRLRIGYLSSDFGNHPTSHLMQSVPGLHDRSKVEIFCYALSPDDGTTFRHKISRESENFVDLSQIPCNGKAADKIFNDGIHILVNMNGYTKGARNEIFALRPAPIQVMWLGYPGTSGASFMDYIITDSVTSPLELAYQYSEKLSYMPHTYFIGDHKQMFPHLKERIIVCDKQQSSVVDNVTVINATDLSPLVENTDVKEIKEVVNAQKPVEITHKVAELPNTTQIVSMIATGQVQTSLNGVVVQNGLATTQTNNKAATGEEVPQNIVITTRRQYMLPDDAVVYCNFNQLYKIDPQTLESWVEILKNVPKSVLWLLRFPAVGEQNIKKTVSDFGISPDRVIFSNVAAKEEHVRRGQLADICLDTPLCNGHTTSMDVLWTGTPVVTLPGETLASRVAASQLATLGCPELIARTREEYQNIAIRLGTKKEYLKALRAKVWKARVESPLFDCSQYAKGLEKLFLRMWEKYENGELPDHISAV”, the protein production entry is given as “failed”. As for “MHVNPLISVARSKASALFAALALVLVVTLTLAGCSSDKSGETTAEAKKDPSSIRVVALDWRYEEILHALGITPVGIVEIGKSKEPQTLKGELEGVTSVGQAKQPNLEVIQSLEPDLILASPTRQAAIMDQLKEIAPTHAYGDTSYTEVLDAMDDIATKVGAEDKAKEVRTRIESKIAQAKNKVEPGTRTALIGWSKNTLYTWVKDSFAGSLLTAAGYEYGYDGEKSAIESKTDVAELTGDKLPEMKLDVMYLYNDIEGFRSSPYADVVSNIVDVEQDTWSRSRGPLAAEAMLDQIINS”, the entry is “failed”; as for “MIAAVAVFALTYVAVAAGRFPYLSLDRPAAALLGAVLMVALGVLTPAEGGAAVNGETLGLLLGMMVLTAYLGEAGFFRWASWRVLRAAGTPRTLLWGVVFTAGALSALLVNDTVCLMMTPLVLRMVDDADLPPLPYLLAVAFGSNAGSAATLTGNPQNMIVGTLSGIGYGRFAAALALPALASLLLVAALLHALFRRALPRGPLAGGRPAAPAVDRALLAKALGALALAVTGFLLGLELAWTALFAAALCMAIAGRAPREALQRVDWPLLVFFAGLFVVVAGIGRAGVTERMYQAVAPLLGADPARQSAVFGLFSIAASQVVSNVPFVILAGEWIPRLADPTLLWLATALCATLAGNLTIVGSVANVIVLELAGSRGRIGFWRFFRVGAVVTAATVAAGLGILLLEHRLGLIG”, “failed”; as for “MIALHTLLCADTPDDTPVCFDETTTMTRGMFRAHVAACIAAWSDRCANRYALCIDDPFAFACALFALLASGKAVVIPASSAPAYLASIADAYDSALTDGDMEGIISQAAQPPGAALLRPIAPHAPITLYTSGSSAAPKAIHKTLAQFDAEVRTLEDHWGEWIGPGAILASVPHHHIYGLLFRIFWPLASGRAFGRRTYAEPHALQTALTRRETAAIVSSPAQLARWPSLPGFDTLSPLPAAVFSSGGPLDEAAAATFASAHGTAPTEIYGSTETGGIAWRRRNESDAWQAFANVAVRREADGALSVRSPHLGHPDWHRTDDAAEFDDAGRFRLRGRMDRIVKLDGKRVSLPEIENWLGLHPYVAQSAAVLLPGASRERLGVLSALTSAGVEALRQHGRIGLAKTLRRHLAAYVAPTLIPRKWRFRMSLPVDARGKLPASAVAASFAAGRKGFEMLSHVRDAEGDHYELRVPPELVHFRGHFPGLPILPGVVLVDWIACLAAELADSTRSIRSIDQLKFMAPVPPAALVSVQLTHEPQRCRVRFRARLGTRECASGALVYREAD”, “failed”. Regarding “MIAPSRNLLLCNKGKTELNHSFSMLQAIVESTPYGLLVTNKHGHLLCYNQPYMDMWRIPPEVMVNARHQIIFGHYSSQLRDPQQFLHSTEVIYGTWLPESFDILEFLDGRAFERHTKATTLEGPNMVRVWSFKDITERRQAEAYKAQLAAMVESSDDAIIVKDLNAIITSWNAGAERIFGYQASEITGSSILALIPPERHEEEKGIMSLVKSGNRVDHFETMWWGKGKKPIDVSVTTSAVKDSDGNIVGISQIARDITKRKESQKRIEYLAHYDPLTGLPNRALLADRMKTAIENAKRYSFQLAVLFVDLDHFKLINDSLGHEIGDKLLKIVAERMRSRLRQTDTVSRLGGDEFIILLSRINAASDAACVAEKIIAALSQPYHLEQHELGLGASIGISIYPDSGKDTSSLLRSADEAMYSAKGQGRNRYHGP”, the protein production result is recorded as “failed”. As for “MIATTSQQSFNLLRTLAVQKASDFADEFYIYMLKDQEASLFLSSQQVHDRLHGSMSKWIADILTNTGDSLADLINHQKKIGQIHARIGIPVDLVERGARRLKWHLYEHIAQVADDKALCFDAMRFASISMDIAIEIMSKTYSQSHDLEHHHHHH”, the entry is “failed”; as for “MICLPETGFLAEASPRLKQMLAAQAAEIGLARGDTLFKQGDPGDALYAVLSGALEISILSLDGRKLSLDLVGPGAVFGEIALFDPGPRTATVSAAEPARVLRVLSADVMAELRRHPELAIDMVRLAGQRMRWMGGQLNEQVFLPVPTRLARKLLHLAPHHDAGGATVRLSQAELAEYVGATREAVSKTLAHWKRMGVIEVARGTLAIRDPQALRALADPDQI”, “failed”. On to “MIDALLNFDFIRYSLISGLLIGFIAPLIGAFIVVRRLSLIADALSHVTLGGISFGMFLLTIIPVFSVINPMWFGILFAVIGALLIEKLRTSFSNYQEIAIPIIMSAGIALSAIFISLADGFNQEIVGLLFGSISAVNISDLTTIIIITIIVLIFIVLFYKELFILSFDEEYSKVIGIPKWIQFLFIVIVAMVISASMRVVGILLVSALITLPIAISMRITKGFKQLIALSVILGELSVILGLIIAFYMNISPGGVIVVLLVLMLILTMIIQKLKIKFKKGVV”, for which the protein production result is “failed”. As for “MIDCLVMAGGQGARMGFREKPLLSVCGQPMLLRVLSALRMACRRIAIVYSRHTPGVKRLCLSGALGAVECIEGPGSYVKDLRLGFSHISTPLLVAPADMPFLNPHHLNLFIDRALADGASIVNLSLRGRGLTGLSVFKHHRGWWRDVETNGCWALDVDTWEDFRRAGELCGGECTGEGLRLELLEHHHHHH”, the entry is “failed”; as for “MIDELRALAVFAKTTETGSFRAAARALGLAPSVVSHHVSQLESRLGVALLYRSTRRLSLTPDGQALYGHAQAMLQAAETGLNELAGRAAEPAGTLRLSLPAFFARGPLTTSLAAFSRCHPKVELELDYSDEKRDLIRDGIDLAIRIGELQDSALKSRRLFDMPRLLVAAPSLLDARGEPASPAELADWPWLGIRMRAKRKTLIDAAGRRHDFAIQPRITANSVDAACQLAIAGCGLATPPAFLVENELAAGQLRVVLPDCQVEALGVYAVWPANAARESLTLRLVRFLAELPPHQ”, “failed”. Under “MIDEWPVPTAAAAVIGPSGVLATHGDDAKPFALASVTKLLVARAAQVAIEEGVVELDTPAGPDGSTVRHLLAHTSGVAMNSADTVAQVGQRRVYSNFGFGLLAHAIEDAAEIEFGRYLTEAVFEPLGMSTSKLLGGADAAGFGVTSTVSDLARFAGDLLRPALVSQQMHDEATSVQFPGVNGVLPGFGSQRPNDWGLGFEIRDGKTPHWTGSSNSPRTFGHFGQSGTFLWVDPVADLALLVLTDRDFGDWTYPLWPAISDGVLREIGTHLEHHHHHH” stands “failed”. As for “MIDLKKIKRFAQEIHDKNNDGHGFDHIERVVALARKILLTEPSANQELVLATYLHDTYDEKLTDDVPKQKVKVAQFLNELKIDKKLIDELFMIIDNMSFSSNLIERKTLSLNGQIVQDADRLDAMGAWGIVRTLEYGWAKNRVFYDPNLPPLDYNSKEDYHSQKNNSTLNHFYEKLFLLKDLLNTTEGKRLGEKRDKIMHLFVSQIEEEYKETHLLEHHHHHH”, the entry is “failed”.

The values above are taken from a protein production outcome set (Wang et al. 2014).
